Test results from paper PMC5389471 (Nucleic Acids Research, 2016).
Each block holds one molecule with its values, some of them ahead of it.

Columns and labels:
AibR [1] = target: T1, AibR (Myxococcus xanthus, UniProt Q1D4I5); assay: MST Kd with Cy5-labelled AibR; assay type: binding
T1 sequence (Q1D4I5 1-228): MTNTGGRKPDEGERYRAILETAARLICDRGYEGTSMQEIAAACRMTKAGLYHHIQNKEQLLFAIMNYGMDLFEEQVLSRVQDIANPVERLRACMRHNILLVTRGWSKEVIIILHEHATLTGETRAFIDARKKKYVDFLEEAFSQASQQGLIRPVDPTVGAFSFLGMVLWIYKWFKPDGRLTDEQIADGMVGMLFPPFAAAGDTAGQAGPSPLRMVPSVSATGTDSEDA

[2] = target: AibR, TetR-like transcriptional regulator of the AIB-operon (Myxococcus xanthus); assay: SEC
[3] = target: AibR, TetR-like transcriptional regulator of the AIB-operon (Myxococcus xanthus); assay: crystal structure
AibR [4] = target: T2, AibR (UniProt Q1D4I5 1-228); assay: EMSA
T2 sequence: T1 sequence (Q1D4I5 1-228)

AibR [5] = target: T2, AibR; assay: MST
AibR [6] = target: T2, AibR; assay: crystal structure

- Kd (AibR [1]): 5800 ± 1510 nM
Molecule: CC(C)=CC(=O)SCCNC(=O)CCNC(=O)[C@H](O)C(C)(C)COP(=O)(O)OP(=O)(O)OC[C@H]1O[C@@H](n2cnc3c(N)ncnc32)[C@H](O)[C@@H]1OP(=O)(O)O [3,3-dimethylacrylyl coenzyme A]

- stoichiometry N [2]: 2
- stoichiometry N [3]: 2
Molecule: AibR, TetR-like transcriptional regulator of the AIB-operon (natural protein)

B1: aibR-Cy5 40 bp (dsDNA)
DNA 1: CCGCGTCGGGCGCTGCTACCTACCGGTCGGTAGGTCTCCA
DNA 2: TGGAGACCTACCGACCGGTAGGTAGCAGCGCCCGACGCGG
- Kd (AibR [4]): 233 ± 20 nM

B2: aibR8 (dsDNA)
DNA 1: B1 DNA 1
DNA 2: TCATCCGCGCCATGGAGACCTACCGACCGGTAGGTAGCAGCGCCCGACGCGG
- binding result (AibR [4]): binds

B3: Cy5 21 bp operator (dsDNA)
DNA 1: GCTACCTACCGGTCGGTAGGT
DNA 2: ACCTACCGACCGGTAGGTAGC
- Kd (AibR [5]): 2300 ± 850 nM

B4: 16-bp palindrome (nt 2-17, G9A) (dsDNA)
DNA 1: CCTACCGATCGGTAGG
DNA 2: CCTACCGATCGGTAGG
- binding result (AibR [6]): binds

B5: 3aibR12 (G12T) (dsDNA)
DNA 1: CGCTGCTACCTACCGGTCTGTAGGTCTCCA
DNA 2: TCATCCGCGCCATGGAGACCTACAGACCGGTAGGTAGCAGCG
- binding result (AibR [4]): no binding

B6: P3791 (dsDNA)
DNA 1: CCCCTGCCCAACCTACCGGTCGGACGGTTCCTAGCGGG
DNA 2: TCATCCGCGCCACCCGCTAGGAACCGTCCGACCGGTAGGTTGGGCAGGGG
- binding result (AibR [4]): binds
